Measured values reported in paper PMC4810252.

B1: BST-2/tetherin: N65/92A (protein)
parent chain: MASTSYDYCRVPMEDGDKRCKLLLGIGILVLLIIVILGVPLIIFTIKANSEACRDGLRAVMECRNVTHLLQQELTEAQKGFQDVEAQAATCNHTVMALMASLDAEKAQGQKKVEELEGEITTLNHKLQDASAEVERLRRENQVLSVRIADKKYYPSSQDSSSAAAPQLLIVLLGLSALLQ
B2: BST-2/tetherin: N92A (protein)
parent chain: B1 parent chain
B3: BST-2/tetherin: N65A (protein)
parent chain: B1 parent chain

Key:
Conditions in all cases: glycan lost; control: wild type
[1] = sucrose gradient fractionation, stable 293T, Western blot
[2] = HBsAg ELISA of supernatant; 293T and Huh7
[3] = confocal co-localisation, transient and stable 293T
[4] = confocal co-localisation, transfected 293T
[5] = confocal co-localisation, stable 293T

| Protein | localisation_or_trafficking [1] | other: restriction of virus release [2] | localisation_or_trafficking [3] | localisation_or_trafficking [4] | localisation_or_trafficking [5] |
| --- | --- | --- | --- | --- | --- |
| B1 | changes | no change | increases | – | – |
| B2 | changes | – | – | no change | – |
| B3 | changes | – | – | no change | no change |
